The source of these data is publication PMC5121336.

The target in the assay is human LDL (low-density lipoprotein) (human). The experiment in a line: SPR; LDL amine-coupled to a CM5 chip (Biacore T100); LDLR^ecto (5-388 nM) or ALK1^ecto (0.19-15.3 uM) as analytes, single cycle kinetics; 25 °C; 25 mM HEPES pH 7.4, 150 mM NaCl, 0.1 mM CaCl2; 1:1 binding model; apparent. For orientation: In SPR one partner is held on a chip, and binding of the other changes the refractive index at the surface.

Sequence of ALK1^ecto-Fc (P37023 22-118): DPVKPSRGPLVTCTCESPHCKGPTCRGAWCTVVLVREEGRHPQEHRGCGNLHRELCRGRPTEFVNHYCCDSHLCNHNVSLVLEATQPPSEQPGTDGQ

For the substance “ALK1^ecto-Fc (from UniProt P37023 22-118) (Fc fusion)”, the Kd is 200 nM.
Turning to “LDLR^ecto-(His)6 (from UniProt P01130 22-788) (domain or fragment)”, the Kd turned out to be 7 nM.
